Results reported in IntAct's records for PubMed 12700764.

Target: mef2b_human MEF2B (UniProt Q02080)
Sequence (Q02080 whole entry): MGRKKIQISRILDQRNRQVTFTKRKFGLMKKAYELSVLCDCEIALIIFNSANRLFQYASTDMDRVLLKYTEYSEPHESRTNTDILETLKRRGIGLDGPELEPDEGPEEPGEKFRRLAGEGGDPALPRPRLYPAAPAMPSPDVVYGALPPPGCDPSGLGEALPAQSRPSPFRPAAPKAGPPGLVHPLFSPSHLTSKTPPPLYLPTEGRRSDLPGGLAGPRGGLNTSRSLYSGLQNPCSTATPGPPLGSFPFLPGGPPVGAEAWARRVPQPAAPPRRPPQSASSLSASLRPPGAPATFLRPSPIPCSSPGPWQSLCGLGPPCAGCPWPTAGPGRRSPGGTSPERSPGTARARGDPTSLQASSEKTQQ

effect of a mutation on the interaction | Substance
disrupting interaction strength | Calcineurin-binding protein cabin-1 (Homo sapiens), Q9Y6J0 L2172A
disrupting interaction strength | Calcineurin-binding protein cabin-1 (Homo sapiens), Q9Y6J0 L2172W
with no effect | Calcineurin-binding protein cabin-1 (Homo sapiens), Q9Y6J0 Q2170A

Continued, substance first:

Substance | effect of a mutation on the interaction
Calcineurin-binding protein cabin-1 (Homo sapiens), Q9Y6J0 I2176A | decreasing interaction strength
Calcineurin-binding protein cabin-1 (Homo sapiens), Q9Y6J0 L2172K | disrupting interaction strength
Calcineurin-binding protein cabin-1 (Homo sapiens), Q9Y6J0 Q2170W | with no effect
